Reference: patent publication CN113563464A (NAT CENTER FOR AIDS/STD CONTROL AND PREVENTION CHINA CDC, dated 2021)

Target: SARS-Cov-2的生物素化RBD (RBD蛋白, NC_045512, 6×His-Avi标签) (SARS-CoV-2, UniProt P0DTC2 319-541)

B1: SW-C11 (antibody, V domains shown)
VH: EVQLVESGGGLIQPGGSLRLSCAASEFIVSRNYMSWVRQAPGTGLEWVSVIYPGGSTFYADSVKGRFTISRDNSKNTLYLQMDSLRVEDTAVYYCARDYGDFYFDYWGQGTLVTVSS
VL: EIVMTQSPVSLSVSPGERATLSCRASQGVASNLAWYQQKAGQAPRLLIYGASTRATGIPARFSGSGSGTEFTLTISTLQSEDSAVYYCQQYNDRPRTFGQGTKLEIKR
- Kd: < 0.001 nM

B2: WJQ-C11 (antibody, V domains shown)
VH: EVQLVESGGGLVQPGGSLRLSCAASGFAFSTYEMNWVRQAPGKGLEWVSYIHNSGNPVYYADSVKGRFTISRDNAENSLYLQMNSLRAEDTAIYYCARALRYSTSWYDYWGQGTLVTVSS
VL: EIVLTQSPVSLSLSPGERATLSCRASQSVSSYLAWYQQKPGQAPRLFIYDASKRATGIPARFSGSGSGTDFTLTISSLEPEDFAVYYCQQRSNWPRTFGQGTKVEIKR
- Kd: 5.29 nM

B3: WJQ-G10 (antibody, V domains shown)
VH: EVQLVESGGGLVQPGESLRLSCAASGLTVSSNYMSWVRQAPGKGLEWVSVIYAGGSTFYADSVKGRFTISRDNSKNTLYLQMNSLRAEDMAIYYCARDLSYYGMDVWGQGTTVTVSS
VL: DIQLTQFPFSLSASVGDRVTITCRASQGISTYLAWYQQKPGRAPKLLIYAASTLQSGVPSRFSGSGSGTEFTLTISSLQPEDFATYYCQLLNSYPVHFGQGTKLEIKR
- Kd: 1.37 nM
